Measurements taken from patent US20060193821.
pKd: −log10 of the molar value.

Columns and labels:
Assay in all cases: filter
[1] = target: IL-12 (human, p35/p40 heterodimer) (Homo sapiens) (UniProt P29459+P29460)
[2] = target: IL-23 (human, p19/p40 heterodimer) (Homo sapiens) (UniProt Q9NPF7+P29460)
[3] = target: T1, IL-12 (mouse, p35/p40 heterodimer) (Mus musculus) (UniProt P43431+P43432); conditions: 2'-F all C and U (rRfY); 1X PBS, 0.1 mg/mL BSA, 30 min RT
T1 sequence 1: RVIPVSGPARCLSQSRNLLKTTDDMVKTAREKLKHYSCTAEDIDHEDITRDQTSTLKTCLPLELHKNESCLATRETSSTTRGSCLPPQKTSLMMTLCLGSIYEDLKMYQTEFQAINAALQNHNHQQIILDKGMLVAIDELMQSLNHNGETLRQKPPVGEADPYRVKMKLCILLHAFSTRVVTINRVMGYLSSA
T1 sequence 2: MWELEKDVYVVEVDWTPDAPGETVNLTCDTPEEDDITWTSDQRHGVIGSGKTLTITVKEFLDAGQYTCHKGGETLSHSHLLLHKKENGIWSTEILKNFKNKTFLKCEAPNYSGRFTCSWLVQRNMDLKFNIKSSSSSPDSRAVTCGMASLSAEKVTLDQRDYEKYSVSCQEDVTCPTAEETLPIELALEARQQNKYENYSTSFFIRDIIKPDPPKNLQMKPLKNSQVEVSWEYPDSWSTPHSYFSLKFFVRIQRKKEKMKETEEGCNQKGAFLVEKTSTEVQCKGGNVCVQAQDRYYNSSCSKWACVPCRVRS

[4] = target: T2, IL-23 (mouse, p19/p40 heterodimer) (Mus musculus) (UniProt Q9EQ14+P43432); conditions: 2'-F all C and U (rRfY); 1X PBS, 0.1 mg/mL BSA, 30 min RT
T2 sequence 1: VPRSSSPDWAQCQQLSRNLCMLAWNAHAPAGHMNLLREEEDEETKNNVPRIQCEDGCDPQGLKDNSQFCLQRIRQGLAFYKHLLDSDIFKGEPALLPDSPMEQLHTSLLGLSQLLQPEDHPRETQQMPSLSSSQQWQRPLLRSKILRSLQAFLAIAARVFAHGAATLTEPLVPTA
T2 sequence 2: T1 sequence 2

Sequence of IL-23 (human, p19/p40 heterodimer) (Homo sapiens) (Q9NPF7 20-189, chain 1 of 2): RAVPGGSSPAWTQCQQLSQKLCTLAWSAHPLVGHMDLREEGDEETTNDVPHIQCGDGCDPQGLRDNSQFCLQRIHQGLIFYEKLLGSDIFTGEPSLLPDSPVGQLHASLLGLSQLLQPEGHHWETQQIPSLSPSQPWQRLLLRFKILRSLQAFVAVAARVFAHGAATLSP
Sequence of IL-23 (human, p19/p40 heterodimer) (Homo sapiens) (P29460 23-328, chain 2 of 2): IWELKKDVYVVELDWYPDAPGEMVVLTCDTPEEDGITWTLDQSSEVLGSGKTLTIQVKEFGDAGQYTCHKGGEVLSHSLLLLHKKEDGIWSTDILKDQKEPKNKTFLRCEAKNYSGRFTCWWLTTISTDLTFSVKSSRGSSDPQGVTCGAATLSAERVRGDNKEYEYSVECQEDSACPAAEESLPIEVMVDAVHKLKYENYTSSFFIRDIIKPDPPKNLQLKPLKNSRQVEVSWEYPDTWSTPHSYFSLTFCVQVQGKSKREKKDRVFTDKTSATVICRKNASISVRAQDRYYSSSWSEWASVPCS
Sequence of IL-12 (human, p35/p40 heterodimer) (Homo sapiens) (P29459 23-219, chain 1 of 2): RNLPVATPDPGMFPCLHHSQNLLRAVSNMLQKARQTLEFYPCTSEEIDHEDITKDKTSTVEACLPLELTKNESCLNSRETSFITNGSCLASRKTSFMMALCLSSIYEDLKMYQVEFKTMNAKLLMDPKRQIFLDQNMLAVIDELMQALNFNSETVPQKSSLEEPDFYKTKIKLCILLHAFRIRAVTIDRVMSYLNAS
Sequence of IL-12 (human, p35/p40 heterodimer) (Homo sapiens) (P29460 23-328, chain 2 of 2): as the sequence (P29460 23-328, chain 2 of 2) above

## GGGAAAAGCGAAUCAUACACAAGAGGUUGAGUACGACGGAGUCNUGGCUAACACGGAAACUAGAGCUCCGCCAGAGACCAACCGAGAA [AMX86-B9]
[1]; 2'-F C,U, tRNA
  pKd: 6.07
[2]; 2'-F C,U, SHMCK, tRNA
  pKd: 7.63

## ACAGGCAAGUAAUUGGGGAGUGCGGGCGGGGUGU [ARC1597]
[2]; deoxy A,G, 2'-OMe C,U, dI at G17, 3'-idT [17], DPBS Ca Mg
  pKd: 7.95

## GGAGCGCACUCAGCCACUGGGGAACAUCUCAUGUCUCUGACCGCUCUUGCAGUAGAAUUUNGACCUCUCUGCUAGC [AMX369.G3]
[3]
  pKd: 6.58
[4]
  pKd: 6.97

## GGGAAAAGCGAAUCAUACACAAGAUGUUGAACCUCUUGUGCGUCCCGAUGUUUNGCAAUGUGGAGCUCCGCCAGAGACCAACCGAGAA [AMX86-F7]
[1]; 2'-F all C and U (rRfY), 1X SHMCK, 0.1 mg/mL tRNA, RT
  pKd: 6.97
[2]; 2'-F all C and U (rRfY), 1X SHMCK, 1 mM Mg, 1 mM Ca, 0.1 mg/mL tRNA, RT
  pKd: 6.83

## ACAGGCAAGUAAUUGGGGAGUGCGGGCGGGGUGU [ARC1614]
[2]; deoxy A,G, 2'-OMe C,U, dI at G31, 3'-idT [dI at 31 (G parent), 2'-OMe C/U at 2,6,10,13,14,21,23,27,32,34, other A,G deoxy, 3'-inverted dT at 35], DPBS Ca Mg
  pKd: 8.77

## GGAGCGCACUCAGCCACGGUUUACUUCCGUGGCAAUAUUGACCUCNCUCUAGACAGGUUUCGACCUCUCUGCUAGC [AMX369.F1]
[3]
  pKd: 6.78
[4]
  pKd: 7.20

## GGGAAAAGCGAAUCAUACACAAGAGCGCUUUAGCGGGUAUAGCACUUUUCAUCUAAUGAANCCGUAGCUCCGCCAGAGACCAACCGAGAA [AMX86-H11]
[1]; 2'-F C,U, tRNA
  pKd: 6.67
[2]; 2'-F C,U, SHMCK, tRNA
  pKd: 6.44

## ACAGGCAAGUAAUUGGGGAGUGCGGGCGGGGUGU [ARC1606]
[2]; deoxy A,G, 2'-OMe C,U, dI at G25, 3'-idT [25], DPBS Ca Mg
  pKd: 8.30

## ACAGGCAAGUAAUUGGGGAGUGCGGGCGGGGUGU [ARC1611]
[2]; deoxy A,G, 2'-OMe C,U, dI at G28, 3'-idT [dI at 28 (G parent), 2'-OMe C/U at 2,6,10,13,14,21,23,27,32,34, other A,G deoxy, 3'-inverted dT at 35], DPBS Ca Mg
  pKd: 8.77

## ACAGGCAAGUAAUUGGGGAGUGCGGGCGGGGUGU [ARC1615]
[2]; deoxy A,G, 2'-OMe C,U, dI at G28,G29, 3'-idT [dI at 28,29 (G parent), 2'-OMe C/U at 2,6,10,13,14,21,23,27,32,34, other A,G deoxy, 3'-inverted dT at 35], DPBS Ca Mg
  pKd: 8.24

## ACAGGCAAGUAAUUGGGGAGUGCGGGCGGGGUGU [ARC1607]
[2]; deoxy A,G, 2'-OMe C,U, dI at G26, 3'-idT [26], DPBS Ca Mg
  pKd: 8.48

## ACAGGCAAGUAAUUGGGGAGUGCGGGCGGGGUGU [ARC1596]
[2]; deoxy A,G, 2'-OMe C,U, dI at G16, 3'-idT [dI at 16 (parent G), 2'-OMe C,U at 2,6,10,13,14,21,23,27,32,34, deoxy A,G elsewhere, 3'-inverted dT at 35], DPBS Ca …
  pKd: 7.95

## ACAGGCAAGUAAUUGGGGAGUGCGGGCGGGGUGU [ARC1605]
[2]; deoxy A,G, 2'-OMe C,U, dI at G24, 3'-idT [24], DPBS Ca Mg
  pKd: 8.12

## ACAGGCAAGUAAUUGGGGAGUGCGGGCGGGGUGU [ARC1595]
[2]; deoxy A,G, 2'-OMe C,U, dI at G15, 3'-idT [dI at 15 (parent G), 2'-OMe C,U at 2,6,10,13,14,21,23,27,32,34, deoxy A,G elsewhere, 3'-inverted dT at 35], DPBS Ca …
  pKd: 8.27

## ACAGGCAAGUAAUUGGGGAGUGCGGGCGGGGUGU [ARC1604]
[2]; deoxy A,G, 2'-OMe C,U, dI at G22, 3'-idT [22], DPBS Ca Mg
  pKd: 8.68

## ACAGGCAAGUAAUUGGGGAGUGCGGGCGGGGUGU [ARC1613]
[2]; deoxy A,G, 2'-OMe C,U, dI at G30, 3'-idT [dI at 30 (G parent), 2'-OMe C/U at 2,6,10,13,14,21,23,27,32,34, other A,G deoxy, 3'-inverted dT at 35], DPBS Ca Mg
  pKd: 8.64

## GGGAAAAGCGAAUCCUACCCAAGAUGUUGUUGGCGUUGAUCGUAUGAUUNAUGGAGNGUGUCNGUGCUCCGCCAGAGACCAACCGAGAA [AMX86-E7]
[1]; 2'-F C,U, tRNA
  pKd: 6.57
[2]; 2'-F C,U, SHMCK, tRNA
  pKd: 6.68

## ACAGGCAAGUAAUUGGGGAGUGCGGGCGGGGUGU [ARC1592]
[2]; deoxy A,G, 2'-OMe C,U, dI at G5, 3'-idT [dI at 5 (parent G), 2'-OMe C,U at 2,6,10,13,14,21,23,27,32,34, deoxy A,G elsewhere, 3'-inverted dT at 35], DPBS Ca Mg
  pKd: 8.09

## ACAGGCAAGUAAUUGGGGAGUGCGGGCGGGGUGU [ARC1593]
[2]; deoxy A,G, 2'-OMe C,U, dI at G4,G5, 3'-idT [dI at 4,5 (parent G), 2'-OMe C,U at 2,6,10,13,14,21,23,27,32,34, deoxy A,G elsewhere, 3'-inverted dT at 35], DPBS Ca Mg
  pKd: 7.86

## ACAGGCAAGUAAUUGGGGAGUGCGGGCGGGGUGU [ARC1594]
[2]; deoxy A,G, 2'-OMe C,U, dI at G9, 3'-idT [dI at 9 (parent G), 2'-OMe C,U at 2,6,10,13,14,21,23,27,32,34, deoxy A,G elsewhere, 3'-inverted dT at 35], DPBS Ca Mg
  pKd: 8.38

## ACAGGCAAGUAAUUGGGGAGUGCGGGCGGGGUGU [ARC1619]
[2]; deoxy A,G, 2'-OMe C,U, dI at G33, 3'-idT [dI at 33 (G parent), 2'-OMe C/U at 2,6,10,13,14,21,23,27,32,34, other A,G deoxy, 3'-inverted dT at 35], DPBS Ca Mg
  pKd: 8.55

## GGGAGAGGAGAGAACGUUCUACGGAAGGNAACAANAGCACUGUUUGUGCAGGCGCUGUCGAUCNAUCNAUCNAUG [rRmY clone SEQ 85]
[2]; 2'-OMe C,U, DPBS Ca Mg
  pKd: 6.62

## ACAGGCAAGUAAUUGGGGAGUGCGGGCGGGGUGU [ARC1602]
[2]; dRmY, deoxyinosine at G15-G18, 3'-idT [deoxyinosine at 15-18 (parent base G written), 2'-deoxy purines, 2'-OMe C/U (2,6,10,13,14,21,23,27,32,34), 3'-inverted dT at 35], dot blot, DPBS with Ca and Mg, 0.1 mg/mL BSA, 30 min RT
  pKd: 7.39

## CGCAGGCAAGUAAUUGGGGAGUGCGGGCGGGGUGCG [ARC1467]
[2]; 2'-OMe C,U and some stem G, PEG spacers between stem 1 strands and core, 3'-idT, DPBS Ca Mg
  pKd: 8.77

## ACAGGCAAGUAAUUGGGGAGUGCGGGCGGGGUGU [ARC1603]
[2]; deoxy A,G, 2'-OMe C,U, dI at G20, 3'-idT [20], DPBS Ca Mg
  pKd: 8.80

## ACAGGCAAGUAAUUGGGGAGUGCGGGCGGGGUGU [ARC1612]
[2]; deoxy A,G, 2'-OMe C,U, dI at G29, 3'-idT [dI at 29 (G parent), 2'-OMe C/U at 2,6,10,13,14,21,23,27,32,34, other A,G deoxy, 3'-inverted dT at 35], DPBS Ca Mg
  pKd: 8.72

## ACAGGCAAGUAAUUGGGGAGUGCGGGCGGGGUGU [ARC1618]
[2]; dRmY, deoxyinosine at G28-G31, 3'-idT [deoxyinosine at 28-31 (parent base G written), 2'-deoxy purines, 2'-OMe C/U (2,6,10,13,14,21,23,27,32,34), 3'-inverted dT at 35], dot blot, DPBS with Ca and Mg, 0.1 mg/mL BSA, 30 min RT
  pKd: 7.47

## ACAGGCAAGUAAUUGGGGAGUGCGGGCGGGGUGU [ARC1617]
[2]; deoxy A,G, 2'-OMe C,U, dI at G30,G31, 3'-idT [dI at 30,31 (G parent), 2'-OMe C/U at 2,6,10,13,14,21,23,27,32,34, other A,G deoxy, 3'-inverted dT at 35], DPBS Ca Mg
  pKd: 8.39

## ACAGGCAAGUAAUUGGGGAGUGCGGGCGGGGUGU [ARC1609]
[2]; deoxy A,G, 2'-OMe C,U, dI at G25,G26, 3'-idT [25,26], DPBS Ca Mg
  pKd: 8.33

## ACAGGCAAGUAAUUGGGGAGUGCGGGCGGGGUGU [ARC1610]
[2]; deoxy A,G, 2'-OMe C,U, dI at G24-G26, 3'-idT [dI at 24,25,26 (G parent), 2'-OMe C/U at 2,6,10,13,14,21,23,27,32,34, other A,G deoxy, 3'-inverted dT at 35], DPBS Ca Mg
  pKd: 8.28

## ACAGGCAAGUAAUUGGGGAGUGCGGGCGGGGUGU [ARC1608]
[2]; deoxy A,G, 2'-OMe C,U, dI at G24,G25, 3'-idT [24,25], DPBS Ca Mg
  pKd: 8.01

## GGAGCGCACUCNGCCACUUCGGAAUAUCGUUGUCUUCUGGGUGAGCAUGCGUUGAGGUUUCNACCUCUCUGCUAGC [AMX369.B2]
[3]
  pKd: 6.60
[4]
  pKd: 7.31

## ACAGGCAAGUAAUUGGGGAGUGCGGGCGGGGUGU [ARC1601]
[2]; deoxy A,G, 2'-OMe C,U, dI at G17,G18, 3'-idT [17,18], DPBS Ca Mg
  pKd: 8.36

## ACAGGCAAGUAAUUGGGGAGUGCGGGCGGGGUGU [ARC1599]
[2]; deoxy A,G, 2'-OMe C,U, dI at G15,G16, 3'-idT [15,16], DPBS Ca Mg
  pKd: 8.14

## ACAGGCAAGUAAUUGGGGAGUGCGGGCGGGGUGU [ARC1466]
[2]; deoxy A,G, 2'-OMe C,U, PEG spacers between stem 1 strands and core, 3'-idT, DPBS Ca Mg
  pKd: 8.72

## ACAGGCAAGUAAUUGGGGAGUGCGGGCGGGGUGU [ARC1600]
[2]; deoxy A,G, 2'-OMe C,U, dI at G16,G17, 3'-idT [16,17], DPBS Ca Mg
  pKd: 7.81

## ACAGGCAAGUAAUUGGGGAGUGCGGGCGGGGUGU [ARC1598]
[2]; deoxy A,G, 2'-OMe C,U, dI at G18, 3'-idT [18], DPBS Ca Mg
  pKd: 8.33

## ACAGGCAAGUAAUUGGGGAGUGCGGGCGGGGUGU [ARC1616]
[2]; deoxy A,G, 2'-OMe C,U, dI at G29,G30, 3'-idT [dI at 29,30 (G parent), 2'-OMe C/U at 2,6,10,13,14,21,23,27,32,34, other A,G deoxy, 3'-inverted dT at 35], DPBS Ca Mg
  pKd: 8.21
